Laboratory results: paper PMC12207370, “Macrocyclic Peptide Probes for Immunomodulatory Protein CD59: Potent Modulators of Bacterial Toxin Activity and Antibody‐Dependent Cytotoxicity” (Angewandte Chemie (International Ed. in English), 2025)

Molecular target: T1, biotinylated CD59 (Homo sapiens, UniProt P13987)
T1 construct: Recombinant soluble human CD59 with an additional C-terminal cysteine residue
T1 sequence (P13987 26-102 limits assumed): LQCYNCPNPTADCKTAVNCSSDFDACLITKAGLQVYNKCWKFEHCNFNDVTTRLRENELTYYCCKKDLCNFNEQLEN
Experiment: mRNA-display cyclic peptide screen against CD59-biotin, NGS abundance after 6th selection round
Settings: for Counts (raw counts for peptide sequence), Seq I: NGS sample Seq I; for Counts (raw counts for peptide sequence), Seq I / Counts (raw counts for peptide sequence), Seq II / Counts Seq I / Counts Seq II: sheet R6 (6th selection round); for Counts (raw counts for peptide sequence), Seq II: NGS sample Seq II; for Percentage of the pool, averaged across the two sequencing samples: average of Seq I and Seq II; for Percentage of the pool, averaged across the two sequencing samples / Percentage of the pool, Seq I / Percentage of the pool, Seq II / Percentage Seq I / Percentage Seq II / Percentage Average: sheet R6; for Percentage of the pool, Seq I: counts normalised by total counts of NGS sample Seq I; for Percentage of the pool, Seq II: counts normalised by total counts of NGS sample Seq II; for Percentage Seq I: counts normalised by total counts of sample Seq I; for Percentage Seq I / Percentage Seq II: percentage of the pool; for Percentage Seq II: counts normalised by total counts of sample Seq II; for Percentage Average: percentage of the pool averaged across the two sequencing samples; for Counts Seq I / Counts Seq II: raw NGS counts of peptide sequence; for Counts Seq I: sequencing sample Seq I; for Counts Seq II: sequencing sample Seq II
Outline: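 Peptide–mRNA fusions were made by in vitro translation with a customised PURE express kit. The kit lacked release factor 1 and methionine and was supplemented with […] initiator tRNA carrying N-chloroacetyl-d-tyrosine. Thioether macrocycles were formed, then enriched and amplified over iterative rounds on CD59-biotin immobilised on streptavidin beads. NGS read counts per sequence were recorded after the 6th selection round.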

Sequence	Counts (raw counts for peptide sequence), Seq I	Counts (raw counts for peptide sequence), Seq II	Percentage of the pool, averaged across the two sequencing samples	Percentage of the pool, Seq I	Percentage of the pool, Seq II	Percentage Seq I	Percentage Seq II	Percentage Average	Counts Seq I	Counts Seq II
FVRGDLYSALG	80	6	0.016%	0.018%	0.014%	–	–	–	–	–
RYGGRTFIYAWS	–	–	–	–	–	0.025%	0.026%	0.025%	111	11
CYGGRTFIYVWS	–	–	–	–	–	0.038%	0.023%	0.031%	168	10
CYGGRTFIYAWP	–	–	–	–	–	0.060%	0.072%	0.066%	263	31
CAWGNRYIAYY	–	–	–	–	–	0.078%	0.067%	0.073%	342	29
FQRGTRSTSWG	–	–	–	–	–	0.054%	0.035%	0.045%	238	15
TLSTNRDLIRLLAAAAAAARTGGG	57	9	0.017%	0.013%	0.021%	–	–	–	–	–
VAHGSKNSQFW	–	–	–	–	–	0.349%	0.325%	0.337%	1526	140
YAWGNRNNAYY	–	–	–	–	–	0.060%	0.049%	0.054%	263	21
GRLNECHVIRP	43	7	0.013%	0.010%	0.016%	–	–	–	–	–
TYGSRFCPQYCAAAAAAARTGGG	–	–	–	–	–	0.030%	0.037%	0.034%	133	16
CFVGRLTLTST	65	3	0.011%	0.015%	0.007%	–	–	–	–	–
LGGRGCFRPCSAAAAAAARTGGG	–	–	–	–	–	0.050%	0.042%	0.046%	220	18
FVSGNRDHTRG	51	5	0.012%	0.012%	0.012%	–	–	–	–	–
CLRKTRDILSV	65	6	0.014%	0.015%	0.014%	–	–	–	–	–
HCWVRGSRNYT	–	–	–	–	–	2.570%	2.548%	2.559%	11242	1098
FVTGNRDNTRG	80	6	0.016%	0.018%	0.014%	–	–	–	–	–
YSSGSRHWTRS	57	7	0.015%	0.013%	0.016%	–	–	–	–	–
FQYFGTGIAFG	–	–	–	–	–	0.301%	0.325%	0.313%	1316	140
HVFGNRSSTRG	69	6	0.015%	0.016%	0.014%	–	–	–	–	–
CFSHRSNSDGI	–	–	–	–	–	0.092%	0.081%	0.087%	404	35
WIRGSRWWTQS	–	–	–	–	–	0.033%	0.035%	0.034%	146	15
YLFGDRFSVRG	–	–	–	–	–	0.094%	0.100%	0.097%	412	43
